Here are results for 2 molecules from patent US11732048B2, “Anti-axl antagonistic antibodies” (BERGEN TEKNOLOGIOVERFØRING AS, priority 2016, dated 2023).

The target of experiment [1] is T1, rhAxl-Fc (binding of Gas6 / MAB154) (Homo sapiens, UniProt P30530).
T1 construct: Fc
Briefly: Biacore competitive binding study, MAb 10G5 as first sample (Example 6). Conditions: rhAxl-Fc saturated with 10G5 (160 nM), second sample 25 μg/mL. The method, then:
A competitive binding study was performed using Biacore 3000 instrument (GE Healthcare) and Binding Analysis wizard with several cycles of two samples injection. As a first sample, a saturating concentration of MAb 10G5 (160 nM or 24 μg/mL) was injected over the surface of a CM5 sensor chip coated with rhAxl-Fc (using amine coupling) for 3 min at flow rate of 30 μL/min followed by 2.5 min stabilization (HBS-EP buffer alone) before the injection of the second sample. The following second samples were used: recombinant human (rh) Gas6 (R&D Systems, Cat. no. 885-GS), recombinant mouse (rm) Gas6 (R&D Systems, Cat. no. 986-GS/CF) and a panel of anti-Axl antibodies, such as MAB154 (R&D Systems, Cat. no. MAB154), and 10G5; all at concentration 25 μg/mL. The second sample was injected for 3 min, followed by 2.5 min stabilization (buffer alone) and regeneration of the surface by 30 sec injection of a regeneration solution (10 mM HCl, 1 M NaCl) at flow rate 50 μL/min.
In general terms: SPR reads the build-up and loss of mass on a sensor chip optically.

The target of the next experiment is T2, Mer (rhMer-Fc chimera) (Homo sapiens, UniProt Q12866).
T2 construct: Soluble recombinant antigens corresponding to the extracellular domains of members of the human TAM receptor family; Fc; purchased R&D Systems 891-MR
T2 sequence (Q12866 21-505 limits assumed): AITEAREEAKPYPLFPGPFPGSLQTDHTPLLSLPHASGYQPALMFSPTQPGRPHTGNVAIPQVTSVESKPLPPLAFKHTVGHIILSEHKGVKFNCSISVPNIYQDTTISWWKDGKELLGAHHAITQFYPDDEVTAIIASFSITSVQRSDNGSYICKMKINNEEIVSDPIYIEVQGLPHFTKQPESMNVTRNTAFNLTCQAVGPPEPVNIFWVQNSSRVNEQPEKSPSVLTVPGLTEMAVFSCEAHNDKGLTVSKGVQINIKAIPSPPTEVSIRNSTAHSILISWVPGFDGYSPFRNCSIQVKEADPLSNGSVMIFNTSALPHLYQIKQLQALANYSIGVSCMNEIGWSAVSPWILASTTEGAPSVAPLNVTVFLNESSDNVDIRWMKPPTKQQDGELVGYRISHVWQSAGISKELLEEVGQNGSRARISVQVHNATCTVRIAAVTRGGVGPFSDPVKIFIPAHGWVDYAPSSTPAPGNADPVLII
Put plainly: Biacore binding analysis on immobilised human Mer. The conditions noted are these: 10 μg/mL in HBS-EP, 25° C. Here is the method:
All binding experiments were performed using Biacore 3000 instrument (GE Healthcare) at 25° C. Soluble recombinant antigens corresponding to the extracellular domains of members of the human TAM receptor family, Axl (rhAxl-Fc chimera; R&D Systems, Cat. no. 154-AL), Mer (rhMer-Fc chimera; R&D Systems, Cat. no. 891-MR) and Tyro3 (rhTyro3/Dtk-Fc chimera; R&D Systems, Cat. no. 859-DK) were immobilized on the surface of CM5 sensor chip using amine coupling at the surface density of 393.0, 303.6 and 364.0 resonance units (RU), respectively. The Biacore run was performed in an automatic mode using Binding analysis wizard. Samples containing MAb 10G5 at concentration 10 μg/mL in HBS-EP buffer (GE Healthcare) were injected over the surfaces with immobilized antigens at flow rate of 30 μL/min for 3 min (association) followed by 5 min dissociation.

The test system of a further experiment is MDA-MB-231 cells. Put plainly: Three-dimensional (3D) organotypic tumour mass model. It is filed as cell-based, human. The method, then: A highly aggressive triple-negative human breast cancer cell line MDA-MB-231 (ATCC® HTB-26™) was cultured according to recommended conditions in Dulbecco's Modified Eagle's Medium/Nutrient Mixture F-12 Ham medium supplemented with 10% foetal bovine serum (FBS), glutamine and penicillin and streptomycin. The cells were pre-treated in suspension for at least 1 hour at 37° C., to ensure proper binding of antibodies on the cell surface before they were placed in extracellular matrix. The cells cultures were observed every day and fresh treatments were done every other day. The antibodies were used at concentrations 50-100 μg/mL. Imaging of coverslip 3D assay (35 mm dish) was done on a NIKON light microscopy using both Phase contrast and Hoffman optics. Already at day 3, difference in growth of cells treated with MAb10G5 and cells treated with a control irrelevant IgG was observed.
MDA-MB-231 cells were grown on extracellular matrix and allowed to form the highly aggressive stellate shaped morphology. Stellate-shaped tumour masses were then treated with the control IgG and antibody 10G5, as described in EXAMPLE 7.

For a further experiment, the system named is cyno-Axl (cyno-Axl-Fc). Briefly: Biacore binding analysis on immobilised cynomolgus Axl. Further details: species or system cynomolgus monkey (Macaca fascicularis). Conditions: 10 μg/mL in HBS-EP, 25° C. The method, then:
The sequence of Axl receptor from cynomolgus monkey (Macaca fascicularis; SEQ ID NO: 27) was retrieved from WO2009062690A1. Based on the sequence, recombinant extracellular domain of cyno-Axl was generated by transient expression in CHO cells as a fusion protein with human Fc. The recombinant cyno-Axl-Fc was purified to homogeneity using Protein A-Sepharose (GE Healthcare). The binding experiments were performed using Biacore 3000 instrument (GE Healthcare) at 25° C. The soluble recombinant antigens corresponding to human Axl (rhAxl-Fc chimera; R&D Systems, Cat. no. 154-AL) and cyno-Axl were immobilized on the surface of CM5 sensor chip using amine coupling at the surface density of 775 and 880 RU, respectively. The Biacore runs were performed in an automatic mode using Binding analysis wizard.
The sample containing MAb 10G5 or human Axl-specific MAb 5F11 (control) at concentration 10 μg/mL in HBS-EP buffer (GE Healthcare) was injected over the surfaces with immobilized antigens at flow rate of 30 μL/min for 3 min (association) followed by 5 min dissociation.

The subject of the next experiment is A549 tumours. Briefly: A549 human NSCLC xenograft in mice (Examples 14, 16, 17, 18). It is filed as in vivo, mouse. The conditions noted are these: nude mice, 20 mg/kg i.p. twice weekly, after four weeks of treatment, versus vehicle.

“Also recorded” adds a separate entry of the source.

cyno-Axl (cyno-Axl-Fc), sequence (as listed by the source): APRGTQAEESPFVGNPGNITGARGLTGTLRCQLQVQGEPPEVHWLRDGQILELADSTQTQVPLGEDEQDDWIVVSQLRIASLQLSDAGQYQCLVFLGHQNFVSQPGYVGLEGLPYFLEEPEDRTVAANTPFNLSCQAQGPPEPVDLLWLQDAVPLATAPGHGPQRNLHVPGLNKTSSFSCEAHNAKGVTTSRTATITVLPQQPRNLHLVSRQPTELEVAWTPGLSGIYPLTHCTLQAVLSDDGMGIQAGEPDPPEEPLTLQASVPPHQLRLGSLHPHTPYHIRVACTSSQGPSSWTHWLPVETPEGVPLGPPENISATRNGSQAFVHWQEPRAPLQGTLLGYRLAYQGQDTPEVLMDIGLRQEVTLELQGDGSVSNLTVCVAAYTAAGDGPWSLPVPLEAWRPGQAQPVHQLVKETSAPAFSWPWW
Text for A549 tumours: SCID mice were implanted subcutaneously (s.c.) into the flank with 5×10^6 A549 cells resuspended in serum-free medium/Matrigel (1:1).

B1: murine 10G5: mouse monoclonal anti-human Axl antibody from hybridoma WR-10G5-E5; VH SEQ ID NO: 28, VL SEQ ID NO: 29 (antibody, listed as Mus musculus, V domains shown)
VH: QVQLQQSGAELVRPGASVKLSCKASGYSFTDFYINWVRQRPGQGLEWIARIFPGGDNTYYNEKFKGKATLTAEESSSTAYIQLSSLTSEDSAVYFCARRGLYYAMDYWGQGISVTVSS
VL: DVLMTQTPLSLPVSLGDQASISCRSSQSLVHSNGIPYLHWYLQKPGQSPKLLIYRVSNRFSGVPDRFSGSGSGTDFTLKISRVEAEDLGVYFCSQGTHVPPTFGGGTKLEIK
modifications: (1)..(118) Mus musculus 10G5 VH domain; (1)..(112) Mus musculus 10G5 VL domain
For B1, in experiment [1], the “Competition with MAB154 for Axl binding” value was “did no inhibit; also recorded: did not compete”; the “Inhibition of Gas6 (human and murine) binding to rhAxl” value is given as “cannot be bound; also recorded: inhibited”. Also, the “Binding to recombinant human Mer” value in the experiment with Mer (rhMer-Fc chimera) is reported as “no significant binding”. Also, the “Effect on established stellate-shaped 3D tumour masses” value with MDA-MB-231 cells (9-days old organoid masses treated 72 hours, versus control IgG) is recorded as “caused degradation of stellate patterns”. Also, the “Growth and tumour mass development in extracellular matrix” value with MDA-MB-231 cells (antibody 50-100 μg/mL, day 6, versus control IgG) was “significantly inhibited growth and tumour mass development”. The “Binding to Axl from cynomolgus monkey” value with cyno-Axl (cyno-Axl-Fc) is “bind strongly; also recorded: strong and specific interaction”.

B2: c10G5: chimeric (mouse variable/human constant) IgG1 antibody with the 10G5 VH and VL (antibody, V domains shown)
VH: QVQLQQSGAELVRPGASVKLSCKASGYSFTDFYINWVRQRPGQGLEWIARIFPGGDNTYYNEKFKGKATLTAEESSSTAYIQLSSLTSEDSAVYFCARRGLYYAMDYWGQGISVTVSS
VL: DVLMTQTPLSLPVSLGDQASISCRSSQSLVHSNGIPYLHWYLQKPGQSPKLLIYRVSNRFSGVPDRFSGSGSGTDFTLKISRVEAEDLGVYFCSQGTHVPPTFGGGTKLEIK
In the case of B2, the “Inhibition of A549 tumour growth” value in the experiment on A549 tumours is on record as “around 40%”.
